Patent EP4745156A1
Numbering of substitutions follows the chain as printed.

B1: 6465-mHvKv-canIgGB (antibody, V domains shown)
VH: EVQLQQSGAELVRPGASVRLSCKASGYSFTNYYLYWVKQRPGQGLEWIGELNPRNGGTNLNAKFKTKATLTVDKSSNTAYMRLSSLTSEDSAVYYCTRGGTTVVVRDVMDFWGQGTSVTVSS
VL: DIELTQSPASLAVSLGQRATISCRASESVDSYGNSFMHWYQQKPGQPPKLLIYRASNLESGIPARFSGSGSRTDFTLTINPVEADDVATYYCQQSNEDPYTFGGGTKLEIKR
B2: B2-mHvKv-canIgGB (antibody, V domains shown)
VH: EVKLVESGGGLVQPGGSMKLSCAASGFTFSDAWMDWVRQSPERGLEWVAEIRSRAESHATYYAESVKGRFTISRDDSKGSVYLQMNSLGTEDTGIYYCTPASTMITTGWFAYWGQGTMVTVSS
VL: NIVMTQSPAILSVTPGDRVSLSCRASQNISVYLHWYQQKSHDSPRVLIKYVSQSISGIPSRFSGSGSGSDFTLRINSVEPEDVGVYYCQNGHSFPYTFGGGTKLEIKR
B3: 6465-H3K3-canIgGB (antibody, V domains shown)
VH: EVQLVESGGDLVKPGGSLRLSCVASGYSFTNYYLYWVRQAPGKGLEWVAELNPRNGGTNLNAKFKTRFTISRDNAKNMAYLQMNSLRAEDTAVYYCTRGGTTVVVRDVMDFWGQGTLVTVSS
VL: DIVMTQTPLSLSVSPGEPASISCRASESVDSYGNSFMHWYRQKPGQSPQLLIYRASNLESGVPDRFSGSGSGTDFTLRISRVEADDAGVYYCQQSNEDPYTFGQGTKLEIKR
B4: 6465-H2K1-canIgGB (antibody, V domains shown)
VH: B3 VH with E46Q, V48L, A49G, R72V, N74K, M78T
VL: EIVLTQTPLSLAVTPGELATISCRASESVDSYGNSFMHWYLQKPGQTPRLLIYRASNLESGVSDRFSGSGSRTDFTLKISRVEAEDVGVYYCQQSNEDPYTFGQGTKLEIKR
B5: 6465-H1K1-canIgGB (antibody, V domains shown)
VH: B3 VH with A49G, R72V, N74K
VL: B4 VL
B6: 6465-H3K1-canIgGB (antibody, V domains shown)
VH: B3 VH
VL: B4 VL
B7: 7475-mHvKv-canIgGB (antibody, V domains shown)
VH: EVKLVESGEGLVKPGGSLKLSCAASGFTFSSYAMSWVRQTPEKRLEWVAYISNGGDYIFYADTVKGRFTISRDNARNTLYLQMSSLKSEDTAMYYCTRRGHYNTSSYWYFDVWGTGTTVTVSS
VL: DIVMTQSPKSMSMSVGERVTLSCKASENVGTYVSWYQQKPEQSPKLLIYGASNRYTGVPDRFTGSGSATDFTLTISSVQAEDLADYHCGQSYSYPPTFGAGTKLELKR
B8: B2-H1K1-canIgGB (antibody, V domains shown)
VH: EVQLVESGGDLVKPGGSLRLSCVASGFTFSDAWMDWVRQAPGKGLQWLAEIRSRAESHATYYAESVKGRFTISRDDAKNTVYLQMNSLRAEDTAVYYCTPASTMITTGWFAYWGQGTLVTVSS
VL: EIVMTQTPLSLAVTPGELATISCRASQNISVYLHWYLQKPGQTPRVLIKYVSQSISGVSDRFSGSGSGSDFTLKISRVEAEDVGVYYCQNGHSFPYTFGQGTKLEIKR
B9: B2-H2K2-canIgGB (antibody, V domains shown)
VH: B8 VH with Q46E, L48V, T80M
VL: DIVMTQTPLSLSVSPGETASISCRASQNISVYLHWYRQKPGQSPQVLIKYVSQSISGVPDRFSGSGSGSDFTLRISRVEADDTGVYYCQNGHSFPYTFGQGTKLEIKR
B10: B2-H3K3-canIgGB (antibody, V domains shown)
VH: B8 VH with L48V
VL: B8 VL with A12S, T14S, L37Q, T43A, R45K, S59P, D60S, K74T, R77S
B11: B2-H3K1-canIgGB (antibody, V domains shown)
VH: B8 VH with L48V
VL: B8 VL
B12: B2-H3K2-canIgGB (antibody, V domains shown)
VH: B8 VH with L48V
VL: B9 VL
B13: B2-H1K3-canIgGB (antibody, V domains shown)
VH: B8 VH
VL: B8 VL with A12S, T14S, L37Q, T43A, R45K, S59P, D60S, K74T, R77S
B14: B2-H2K3-canIgGB (antibody, V domains shown)
VH: B8 VH with Q46E, L48V, T80M
VL: B8 VL with A12S, T14S, L37Q, T43A, R45K, S59P, D60S, K74T, R77S
B15: B2-H2K1-canIgGB (antibody, V domains shown)
VH: B8 VH with Q46E, L48V, T80M
VL: B8 VL
B16: B2-H1K2-canIgGB (antibody, V domains shown)
VH: B8 VH
VL: B9 VL
B17: 7475-H1K1-canIgGB (antibody, V domains shown)
VH: EVQLVESGGDLVKPGGSLRLSCVASGFTFSSYAMSWVRQAPGKGLQWVAYISNGGDYIFYADTVKGRFTISRDNARNTLYLQMNSLRSEDTAVYYCTRRGHYNTSSYWYFDVWGQGTLVTVSS
VL: EIVMTQSPASLSLSQEEKVTITCKASENVGTYVSWYQQKPGQAPKLLIYGASNRYTGVPSRFSGSGSGTDFTFTISSLEPEDVAVYYCGQSYSYPPTFGAGTKVELKR
B18: 7475-H2K3-canIgGB (antibody, V domains shown)
VH: B17 VH with V37I, R76K, S88A
VL: B17 VL with T72S
B19: 7475-H3K3-canIgGB (antibody, V domains shown)
VH: B17 VH with Y50R, R76K, S88A, V93M
VL: B17 VL with T72S
B20: 7475-H2K1-canIgGB (antibody, V domains shown)
VH: B17 VH with V37I, R76K, S88A
VL: B17 VL
B21: 7475-H1K3-canIgGB (antibody, V domains shown)
VH: B17 VH
VL: B17 VL with T72S
B22: 7475-H2K2-canIgGB (antibody, V domains shown)
VH: B17 VH with V37I, R76K, S88A
VL: B17 VL with G68A, F73L, L78V
B23: 7475-H3K2-canIgGB (antibody, V domains shown)
VH: B17 VH with Y50R, R76K, S88A, V93M
VL: B17 VL with G68A, F73L, L78V
B24: 7475-H3K1-canIgGB (antibody, V domains shown)
VH: B17 VH with Y50R, R76K, S88A, V93M
VL: B17 VL
B25: 7475-H1K2-canIgGB (antibody, V domains shown)
VH: B17 VH
VL: B17 VL with G68A, F73L, L78V

Molecular target: His-tagged canine IL-31 (interleukin 31) recombinant protein (canine)
Assay: BLI (Gator), biotinylated antibody on streptavidin probe, canine IL-31 as analyte

B1 and B2 are within 1.5-fold of each other in Kd: 2.09 nM for the first, 3.04 nM for the second.

Going from B3 to B4, the Kd rises from 2.02 nM to 3.37 nM (1.7-fold).

Going from B5 to B6, the Kd rises from 3.21 nM to 5.75 nM (1.8-fold).

Compared with B7, B8 is 17-fold higher in Kd: 1.01 nM for the first, 17.2 nM for the second. The first binds more tightly here.

Compared with B9, B10 is 2.9-fold lower in Kd: 9.17 nM for the first, 3.16 nM for the second.

Going from B11 to B12, the Kd falls from 10.2 nM to 1.76 nM (5.8-fold). The second binds more tightly here.

First: B13
Second: B14
The Kd of the first is 11-fold higher: 16.7 nM for the first, 1.53 nM for the second. The second binds more tightly here.

B15 and B16 are within 1.5-fold of each other in Kd: 10 nM for the first, 13.8 nM for the second.

B17 and B18 are within 1.5-fold of each other in Kd: 6.73 nM for the first, 4.67 nM for the second.

First: B19
Second: B20
The Kd of the first is 1.6-fold lower: 3.34 nM for the first, 5.43 nM for the second. The first binds more tightly here.

Compared with B21, B22 is 1.8-fold lower in Kd: 6.51 nM for the first, 3.61 nM for the second.

B23 and B24 are within 1.5-fold of each other in Kd: 5.4 nM for the first, 4.84 nM for the second.

B25 was tested, and the Kd was 6.37 nM.

First: B1
Second: B2
The koff of the first is 4.4-fold higher: 0.00106 s⁻¹ for the first, 0.000243 s⁻¹ for the second.

B3 and B4 are within 1.5-fold of each other in koff: 0.00164 s⁻¹ for the first, 0.00171 s⁻¹ for the second.

B5 and B6 are within 1.5-fold of each other in koff: 0.000979 s⁻¹ for the first, 0.00121 s⁻¹ for the second.

First: B7
Second: B8
The koff of the first is 5.2-fold lower: 0.000251 s⁻¹ for the first, 0.0013 s⁻¹ for the second.

Going from B9 to B10, the koff falls from 0.000882 s⁻¹ to 0.000381 s⁻¹ (2.3-fold).

Compared with B11, B12 is 6.1-fold lower in koff: 0.00114 s⁻¹ for the first, 0.000188 s⁻¹ for the second.

Compared with B13, B14 is 10-fold lower in koff: 0.0015 s⁻¹ for the first, 0.000143 s⁻¹ for the second.

B15 and B16 are within 1.5-fold of each other in koff: 0.000942 s⁻¹ for the first, 0.00115 s⁻¹ for the second.

First: B17
Second: B18
The koff of the first is 2.1-fold higher: 0.00156 s⁻¹ for the first, 0.000759 s⁻¹ for the second.

Going from B19 to B20, the koff falls from 0.00204 s⁻¹ to 0.00055 s⁻¹ (3.7-fold).

First: B21
Second: B22
The koff of the first is 4-fold higher: 0.00192 s⁻¹ for the first, 0.000481 s⁻¹ for the second.

B23 and B24 are within 1.5-fold of each other in koff: 0.000539 s⁻¹ for the first, 0.000542 s⁻¹ for the second.

Work on B25 yielded a koff of 0.000614 s⁻¹.

Going from B1 to B2, the kon falls from 507000 M⁻¹ s⁻¹ to 79900 M⁻¹ s⁻¹ (6.3-fold).

Going from B3 to B4, the kon falls from 812000 M⁻¹ s⁻¹ to 508000 M⁻¹ s⁻¹ (1.6-fold).

B5 and B6 are within 1.5-fold of each other in kon: 305000 M⁻¹ s⁻¹ for the first, 211000 M⁻¹ s⁻¹ for the second.

First: B7
Second: B8
The kon of the first is 3.3-fold higher: 250000 M⁻¹ s⁻¹ for the first, 75600 M⁻¹ s⁻¹ for the second.

B9 and B10 are within 1.5-fold of each other in kon: 96200 M⁻¹ s⁻¹ for the first, 121000 M⁻¹ s⁻¹ for the second.

B11 and B12 are within 1.5-fold of each other in kon: 112000 M⁻¹ s⁻¹ for the first, 107000 M⁻¹ s⁻¹ for the second.

B13 and B14 are within 1.5-fold of each other in kon: 89800 M⁻¹ s⁻¹ for the first, 93500 M⁻¹ s⁻¹ for the second.

B15 and B16 are within 1.5-fold of each other in kon: 93800 M⁻¹ s⁻¹ for the first, 82800 M⁻¹ s⁻¹ for the second.

B17 and B18 are within 1.5-fold of each other in kon: 231000 M⁻¹ s⁻¹ for the first, 162000 M⁻¹ s⁻¹ for the second.

Going from B19 to B20, the kon falls from 611000 M⁻¹ s⁻¹ to 101000 M⁻¹ s⁻¹ (6-fold).

Going from B21 to B22, the kon falls from 295000 M⁻¹ s⁻¹ to 133000 M⁻¹ s⁻¹ (2.2-fold).

B23 and B24 are within 1.5-fold of each other in kon: 100000 M⁻¹ s⁻¹ for the first, 112000 M⁻¹ s⁻¹ for the second.

In the case of B25, the kon is reported as 96500 M⁻¹ s⁻¹.

Molecular target: His-tagged canine IL-31 (interleukin 31) recombinant protein (canine)
Assay: cell-based or functional assay

Compared with B1, B2 is lower in pSTAT IC50 (µg/mL): 7.1 µg/mL for the first, 6.8 µg/mL for the second.

Compared with B3, B4 is higher in pSTAT IC50 (µg/mL): 7.2 µg/mL for the first, 7.3 µg/mL for the second.

Going from B5 to B6, the pSTAT IC50 (µg/mL) rises from 7.5 µg/mL to 7.8 µg/mL.

Compared with B7, B8 is higher in pSTAT IC50 (µg/mL): 6.7 µg/mL for the first, 9.4 µg/mL for the second.

Compared with B9, B10 is lower in pSTAT IC50 (µg/mL): 7.8 µg/mL for the first, 7.4 µg/mL for the second.

First: B11
Second: B12
The pSTAT IC50 (µg/mL) of the first is higher: 8.5 µg/mL for the first, 7.2 µg/mL for the second.

Compared with B13, B14 is lower in pSTAT IC50 (µg/mL): 9.3 µg/mL for the first, 7.1 µg/mL for the second.

First: B15
Second: B16
The pSTAT IC50 (µg/mL) of the first is lower: 8.3 µg/mL for the first, 9.2 µg/mL for the second.

Compared with B17, B18 is lower in pSTAT IC50 (µg/mL): 8.4 µg/mL for the first, 7.2 µg/mL for the second.

First: B19
Second: B20
The pSTAT IC50 (µg/mL) of the first is lower: 6.9 µg/mL for the first, 7.9 µg/mL for the second.

Going from B21 to B22, the pSTAT IC50 (µg/mL) falls from 8.2 µg/mL to 7.1 µg/mL.

First: B23
Second: B24
The pSTAT IC50 (µg/mL) of the first is higher: 7.8 µg/mL for the first, 7.5 µg/mL for the second.

B25 gave a pSTAT IC50 (µg/mL) of 8.1 µg/mL.
